From patent publication US20180327500A1

B1: 28-MET antibody analog (antibody, from another filing, IgG1, V domains shown)
VH: QVQLQESGPGLVKPGETLSLTCTVSGGSISGYYWSWIRQAPGKGLEWIGEIYYAGSTLYNPSLKGRVTISVDTSKNQFSLKLSSVTAEDTAVYYCARHYGLDWFGDTGMDVWGQGTLVTVSS
VL: DIELTQPPSVSVAPGQSITISCSGDNLGDKYVHWYQQKPGQAPVLVIYDDNERPSGIPERFSGSNSGNTATLTISGTQAEDEADYYCSAYGSHSGTVFGGGTKLTVLG
B2: 13-MET antibody analog (antibody, from another filing, IgG1, V domains shown)
VH: QVQLKESGPALVKPTQTLTLTCTFSGFSLSTSGMVVSWIRQPPGKALEWLAFISWDDDKYYSTSLKTRLTISKDTSKNQVVLTMTNMDPVDTATYYCAREPGRYGGYYFDYWGQGTLVTVSS
VL: DIQMTQSPSSLSASVGDRVTITCRASQTISHYLAWYQQKPGKAPKLLIYAASILQSGVPSRFSGSGSGTDFTLTISSLQPEDFAVYYCQQYSGFPVTFGQGTKVEIKR
B3: 223C4 antibody analog (antibody, from another filing, IgG1, V domains shown)
VH: EVLLQQSGPELVKPGASVKIPCKASGYTFTDYNMDWVKQSHGMSLEWIGDINPNNGGTIFNQKFKGKATLTVDKSSSTAYMELRSLTSEDTAVYYCARGRYVGYYYAMDYWGQGTSVTVSS
VL: DIQMTQSPASLSVSVGETVTITCRASENIYSNLAWYQQKQGKSPQLLVYAATNLVDGVPSRFSGSGSGTQYSLKINSLQSEDFGSYYCQHFWGPPYTFGGGTKLEIK
B4: 36C4 antibody analog (antibody, from another filing, IgG1, V domains shown)
VH: QVQLVESGPGLVKPSQTLSLTCAVSGGSITTNYYYWSWIRQSPGKGLEWMGVIAYDGSTDYSPSLKSRTSISRDTSKNQFSLQLSSVTPEDTAVYYCARDVRVIATGWATANALDAWGQGTLVTVSS
VL: QSVLTQPPSVSGSPGKTVTISCAGTSSDVGYGNYVSWYQQLPGTAPKLLIFAVSYRASGIPDRFSGSKSGNTAFLTISGLQSEDEADYYCASYRSSNNAAVFGGGTHLTVL

Experiments:
[1] = biological target: human MET Fc fusion protein (R&D Systems) (human) (UniProt P08581); assay: BLI; MET-Fc saturated with antibody at 80 ug/ml (533 nM), then HGF as competitor at 20 ug/ml
[2] = biological target: human MET ECD construct with AA 129-143 exchanged to mouse sequence, on HEK293 cells (human); assay: flow cytometry on transfected HEK293 cells, normalised to 5D5 binding at 3 ug/ml
[3] = biological target: human MET ECD construct with H209 mutated to mouse sequence, on HEK293 cells (human) (UniProt P08581); assay: as above

Row | Binder | % HGF binding inhibition [1] | % binding compared to 5D5 [2] | % binding compared to 5D5 [3]
1 | B1 | 50% | – | –
2 | B2 | 81% | – | –
3 | B3 | 69% | – | –
4 | B4 | 74% | 58% | 43%
